Test results: IntAct's records for PubMed 21139564

B1: Eukaryotic initiation factor 4F subunit p150 (Saccharomyces cerevisiae), P39935 (parent)
chain: MTDETAHPTQSASKQESAALKQTGDDQQESQQQRGYTNYNNGSNYTQKKPYNSNRPHQQRGGKFGPNRYNNRGNYNGGGSFRGGHMGANSSNVPWTGYYNNYPVYYQPQQMAAAGSAPANPIPVEEKSPVPTKIEITTKSGEHLDLKEQHKAKLQSQERSTVSPQPESKLKETSDSTSTSTPTPTPSTNDSKASSEENISEAEKTRRNFIEQVKLRKAALEKKRKEQLEGSSGNNNIPMKTTPENVEEKGSDKPEVTEKTKPAEEKSAEPEVKQETPAEEGEQGEKGQIKEESTPKVLTFAERLKLKKQQKEREEKTEGKENKEVPVQEETKSAIESAPVPPSEQVKEETEVAETEQSNIDESATTPAIPTKSDEAEAEVEAEAGDAGTKIGLEAEIETTTDETDDGTNTVSHILNVLKDATPIEDVFSFNYPEGIEGPDIKYKKEHVKYTYGPTFLLQFKDKLNVKADAEWVQSTASKIVIPPGMGRGNRSRDSGRFGNNSSRGHDFRNTSVRNMDDRANSRTSSKRRSKRMNDDRRSNRSYTSRRDRERGSYRNEEKREDDKPKEEVAPLVPSANRWVPKFKSKKTEKKLAPDGKTELLDKDEVERKMKSLLNKLTLEMFDAISSEILAIANISVWETNGETLKAVIEQIFLKACDEPHWSSMYAQLCGKVVKELNPDITDETNEGKTGPKLVLHYLVARCHAEFDKGWTDKLPTNEDGTPLEPEMMSEEYYAAASAKRRGLGLVRFIGFLYRLNLLTGKMMFECFRRLMKDLTDSPSEETLESVVELLNTVGEQFETDSFRTGQATLEGSQLLDSLFGILDNIIQTAKISSRIKFKLIDIKELRHDKNWNSDKKDNGPKTIQQIHEEEERQRQLKNNSRSNSRRTNNSSNRHSFRRDAPPASKDSFITTRTYSQRNSQRAPPPKEEPAAPTSTATNMFSALMGESDDEE
partner: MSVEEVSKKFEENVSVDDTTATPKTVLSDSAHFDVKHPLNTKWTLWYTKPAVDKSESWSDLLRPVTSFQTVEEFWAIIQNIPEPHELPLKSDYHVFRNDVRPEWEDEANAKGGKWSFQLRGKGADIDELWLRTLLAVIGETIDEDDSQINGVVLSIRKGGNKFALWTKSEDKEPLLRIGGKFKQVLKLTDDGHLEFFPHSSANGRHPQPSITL

Variants of: B1
Conditions: with if4e_yeast CDC33, P07260

Variant | effect of a mutation on the interaction
L457A;L458A | decreasing interaction
V213A;K214A;L215A;R216A;L457A;L458A | decreasing interaction strength
